Measured values from US20060020118A1.

Target: human IFNAR1 (first human interferon-alpha receptor), membrane form on cells (human) (UniProt P17181)
Experiment: flow cytometry, fluoresceinated control IgG on U266 cells, no soluble hIFNAR1

UniProt P17181, sequence (P17181 28-557): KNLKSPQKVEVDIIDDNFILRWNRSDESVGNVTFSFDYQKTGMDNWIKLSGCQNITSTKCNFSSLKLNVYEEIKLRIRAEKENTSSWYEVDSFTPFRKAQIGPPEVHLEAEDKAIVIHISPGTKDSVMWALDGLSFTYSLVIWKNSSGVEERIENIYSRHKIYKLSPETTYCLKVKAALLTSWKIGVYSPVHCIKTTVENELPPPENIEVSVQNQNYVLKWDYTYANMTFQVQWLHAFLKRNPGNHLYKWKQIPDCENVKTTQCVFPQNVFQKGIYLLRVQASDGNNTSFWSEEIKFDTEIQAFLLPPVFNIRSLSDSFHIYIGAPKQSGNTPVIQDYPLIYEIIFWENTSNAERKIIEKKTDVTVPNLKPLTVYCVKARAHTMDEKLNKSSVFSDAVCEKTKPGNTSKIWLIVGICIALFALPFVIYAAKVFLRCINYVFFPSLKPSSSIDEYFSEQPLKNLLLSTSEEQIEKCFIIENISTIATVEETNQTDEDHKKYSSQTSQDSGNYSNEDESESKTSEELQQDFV

Mean Fluorescence Intensity: 2.99
Substance: fluoresceinated control IgG (antibody)
